In US20190328766, “COMPOSITIONS AND METHODS FOR SUPPRESSING MSUT2” (United States Government As Represented By The Department …, published 2019):

What was measured:
PABPN1 = biological target: T1, PABPN1 (Homo sapiens, UniProt Q86U42 Q86U42:1-306); assay: SPR; Biacore T200, biotin capture, from kinetics at 0.6-1 uM protein; conditions: tags: GST fusion (pGEX6P-1), E. coli BL21(DE3), benzonase treated; label: 5' BiotinTEG
T1 sequence: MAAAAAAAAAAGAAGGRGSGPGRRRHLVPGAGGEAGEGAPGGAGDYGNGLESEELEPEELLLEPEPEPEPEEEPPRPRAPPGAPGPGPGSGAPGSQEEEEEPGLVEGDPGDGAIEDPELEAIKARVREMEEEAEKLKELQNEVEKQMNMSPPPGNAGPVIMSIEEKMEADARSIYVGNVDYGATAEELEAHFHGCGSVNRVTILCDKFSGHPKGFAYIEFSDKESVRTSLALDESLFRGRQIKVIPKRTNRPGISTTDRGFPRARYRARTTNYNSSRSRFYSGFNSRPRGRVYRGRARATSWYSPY
Procedure: (§1) SPR experiments were conducted on a Biacore T200 using the Biotin Capture Kit Series S following the manufacturer's instructions (GE). Biotin capture reagent was applied to the sensor chip at a flow rate of 2 μl/minute for 300 seconds. 1 nM biotinylated RNA (BiotinTEG-[…]; SEQ ID NO: 25) was captured at a flow rate of 10 μl/minute for 180 seconds. Samples were flowed across the sensor chip at 50 μl/minute for 120 seconds and the chip was regenerated for 120 seconds at a flow rate of 10 μl/minute.

[1] = biological target: T2, MSUT2 (ZC3H14) CCCH zinc finger domain (Homo sapiens, UniProt Q6PJT7 Q6PJT7:595-719); assay: as above; conditions: tags: GST fusion (pGEX6P-1), E. coli BL21(DE3), benzonase treated; label: 5' BiotinTEG
T2 chain: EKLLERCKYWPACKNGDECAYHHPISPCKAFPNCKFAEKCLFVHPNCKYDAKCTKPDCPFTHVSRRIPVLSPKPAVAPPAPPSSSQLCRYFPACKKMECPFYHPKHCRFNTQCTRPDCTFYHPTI
Procedure: as §1

GST-MSUT2 [2] = biological target: T3, GST-MSUT2 (UniProt Q6PJT7 Q6PJT7:595-719); assay: FP; dose-dependent polarization increase; conditions: tags: GST fusion; label: fluorescein (FAM)
T3 sequence: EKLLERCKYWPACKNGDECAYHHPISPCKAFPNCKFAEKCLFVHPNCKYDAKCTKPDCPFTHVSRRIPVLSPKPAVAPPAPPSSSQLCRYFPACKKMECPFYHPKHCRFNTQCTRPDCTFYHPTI

GST-MSUT2 [3] = biological target: T3, GST-MSUT2; assay: AlphaScreen; 25 mM HEPES, 100 mM NaCl, 0.04% casein, 0.2% Triton X-100, pH 7.4, room temp; inhibited by ebselen; conditions: tags: GST fusion; label: 5' TEG-Biotin (IDT)
Procedure: The steps and set up for performing the ALPHA assay for MSUT2 binding to polyA are as follows: [0229] 1. Dilutions are in assay buffer (1×PAMA final concentration). [0230] 2. Scale is for 96 well assay in PE […] ½ area plate (total volume/well is 50 μL). [0231] 3. Assays set up in low light conditions [0232] 4. Add 20 μL of diluted donor bead (10 ug/mL) to well bringing well volume to 20 μL [0233] 5. Add 10 μL diluted biotin RNA (15 nM)) bringing well volume to 30 μL [0234] 6. Add 10 μL diluted GST-MSUT2 Protein (125 nM)) bringing well volume to 40 μL [0235] 7. Incubate at room temp for 30 minutes in the dark [0236] 8. […] 9. Incubate at room temp for 60 minutes in the dark [0238] 10. Read Plate using standard AlphaAssay settings on Perkin Elmer EnSpire® Alpha microplate reader

AAAAAAAAAAAAAAA (ssRNA) [biotin-poly(A)15]
Kd (PABPN1): 237 nM
Kd [1]: 60 nM

AAAAAAAAAAAAAAA (ssRNA) [FAM-PolyA15]
binding result (GST-MSUT2 [2]): binds

AAAAAAAAAAAAAAAAAAAA (ssRNA) [biotin-poly(A)20]
binding result (GST-MSUT2 [3]): binds
